From article doi:10.1101/2025.06.16.659917, “MTBP allosterically activates Cdk8-CycC kinase activity” (bioRxiv, 2025)

Biological target: T1, 6xHis-3xFLAG-Cdk8 wt (recombinant, full-length) (human, UniProt P49336 1-464)
T1 construct: Cdk8, human, full-length; Co-expressed with CycC, alone or together with MTBP(C) or Med12(N100); source: Sf9/Hi5 insect cells (baculovirus), purified (Ni-NTA, dialysis); not shown: 6xHis, N-terminal, kept
Assay: pull-down; co-expression in Sf9/Hi5 insect cells and co-purification on Ni-NTA agarose via the N-terminal 6His-tag on Cdk8; 20 mM HEPES pH 8.0, 150 mM NaCl, 2% glycerol, 0.1% Triton X-100, 0.5 mM TCEP, 20 mM imidazole; 4°C
Conditions: partners not purified

T1 sequence (P49336 whole entry): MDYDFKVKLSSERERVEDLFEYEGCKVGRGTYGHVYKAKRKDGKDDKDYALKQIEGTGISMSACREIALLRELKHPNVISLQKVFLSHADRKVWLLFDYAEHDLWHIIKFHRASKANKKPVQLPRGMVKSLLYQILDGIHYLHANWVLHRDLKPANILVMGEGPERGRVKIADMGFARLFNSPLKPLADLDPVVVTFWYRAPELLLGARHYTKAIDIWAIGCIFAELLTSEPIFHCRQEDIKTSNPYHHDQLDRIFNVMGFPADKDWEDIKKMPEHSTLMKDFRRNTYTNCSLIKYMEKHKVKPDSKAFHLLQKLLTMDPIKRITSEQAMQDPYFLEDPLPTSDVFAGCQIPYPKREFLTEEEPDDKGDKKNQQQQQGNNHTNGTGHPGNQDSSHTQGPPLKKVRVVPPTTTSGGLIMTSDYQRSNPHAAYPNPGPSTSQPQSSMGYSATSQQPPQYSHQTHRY

B1: Med12(N100) (recombinant Med12 residues 1-100) (domain or fragment, human, UniProt Q93074 1-100, looked up)
chain: MAAFGILSYEHRPLKRPRLGPPDVYPQDPKQKEDELTALNVKQGFNNQPAVSGDEHGSAKNVSFNPAKISSNFSSIIAEKLRCNTLPDTGRRKPQVNQKD
notes: Med12, human, residues 1-100; also called Med12-1-100; Med12(1-100); source: Sf9/Hi5 insect cells (baculovirus), co-expressed with Cdk8 and CycC, purified (Ni-NTA via Cdk8); also purified alone
- binding result: binds
